# Data published in the supplement of paper PMC9732359.
# ± gives the uncertainty stated by the source.
# Experiment: protein stability index of a GFP-peptide fusion (yeast GPS) (PSI 1-4); higher = more stable; sorted into four equal gates, so the index is relative within each strain
# How it was run: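 Sequencing reads from sorted gates were used to score each peptide. The library consisted of tiled 17-residue yeast protein peptides fused downstream of GFP on a Cherry-expressing plasmid, pooled and carried in yeast. Mid-log cultures in leucine-free medium were split into four equal gates by GFP/Cherry ratio, and each gate's plasmids were PCR-amplified and Illumina-sequenced. The protein stability index adds up, over all gates, the read frequency multiplied by the gate number.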
Sequence,protein stability index (doa10∆),protein stability index (pdr5∆),protein stability index (san1∆),protein stability index (ubr1∆)
HAIIIFGYPETIANSII [YMR153W/NUP53],1.91 ± 0.078,2.04 ± 0.065,2.17 ± 0.098,2.92 ± 0.046
HCEDKDYKTAFSYFFES [RPN6],2.77 ± 0.081,2.83 ± 0.071,2.53 ± 0.076,3.02 ± 0.055
HDAIFSIYKYIHLNELL [SNF12],2.31 ± 0.051,2.43 ± 0.046,1.95 ± 0.074,2.01 ± 0.038
HDWLNALDGDLIELLEK [YCG1],–,3.32 ± 0.2,2.75 ± 0.24,3.55 ± 0.11
HEDEKLIPTIFRYITTW [PRP8],2.6 ± 0.06,2.25 ± 0.048,1.9 ± 0.051,2.23 ± 0.033
HEFFIANHDDQDDIDEM [SRP68],3.12 ± 0.056,2.64 ± 0.061,3.24 ± 0.04,3.23 ± 0.062
HEFTLSFTYELKQHNQN [BRR2],1.98 ± 0.074,1.97 ± 0.054,2.4 ± 0.08,2.43 ± 0.073
HEILSEPAIEEENGDSI [MED1],2.98 ± 0.17,3.11 ± 0.12,2.99 ± 0.19,3.26 ± 0.14
HELREKERISVAAASKI [PRE2],2.67 ± 0.061,2.77 ± 0.049,2.79 ± 0.062,2.22 ± 0.03
HELSSSHTSLVKIGKFI [SRB8],1.8 ± 0.042,2.61 ± 0.033,1.84 ± 0.079,1.63 ± 0.052
HETTFMTAMRLMLKKLK [YML031W/NDC1],1.21 ± 0.097,2.56 ± 0.094,2.42 ± 0.1,2.5 ± 0.069
HFGHCFNITDNGVRALF [GRR1],2.07 ± 0.18,2.65 ± 0.13,–,2.64 ± 0.1
HFTSPIRRYCDVVAHRQ [DIS3],2.04 ± 0.082,2.21 ± 0.066,2.06 ± 0.1,1.84 ± 0.073
HGMFSSASVRALIENWA [FAS1],1.48 ± 0.11,1.84 ± 0.12,1.48 ± 0.17,1.76 ± 0.064
HGNLASCHGHFGHLKLA [RPO31],1.48 ± 0.06,1.45 ± 0.061,1.14 ± 0.1,1.2 ± 0.033
HHRDSNFPDEDDDDSRK [SKP1],3 ± 0.18,3.55 ± 0.17,3.07 ± 0.14,3.5 ± 0.18
HHYEECAERVKIQQQQP [QCR6],3.25 ± 0.12,3.04 ± 0.18,2.85 ± 0.11,3.13 ± 0.15
HILRISFLDRKRAKEFI [SIN4],2.42 ± 0.079,2.67 ± 0.078,2.05 ± 0.063,2.4 ± 0.049
HISFNFSMLQMAFEASA [BRR2],1.42 ± 0.075,1.45 ± 0.066,1.41 ± 0.23,1.24 ± 0.06
HIVYSLLVNPDIDLETY [YML103C/NUP188],2.52 ± 0.049,2.34 ± 0.042,2.52 ± 0.062,2.45 ± 0.035
HKQVYPLRMETIPILES [DSN1],1.73 ± 0.049,2.37 ± 0.05,2.24 ± 0.066,2.14 ± 0.038
HLLIKIIRQLSELNEGN [SRB8],2.8 ± 0.097,2.77 ± 0.089,3.18 ± 0.052,1.97 ± 0.053
HLLPRNEWIKAQEDVPY [QCR7],2.31 ± 0.072,1.68 ± 0.086,2.17 ± 0.089,1.88 ± 0.046
HLLVKQGDGLLTKLQKY [RPN7],2.97 ± 0.13,2.44 ± 0.1,3.19 ± 0.12,3 ± 0.16
HLLYPPHIIAVACLFIT [SSN8],1.26 ± 0.053,1.27 ± 0.038,1.32 ± 0.1,1.34 ± 0.052
HLNHYILLRYHHNDISN [YCG1],1.23 ± 0.088,1.17 ± 0.068,1.19 ± 0.15,1.33 ± 0.063
HLSTYLKVYKVGDIVDI [RPL21A],1.22 ± 0.075,1.49 ± 0.061,1.24 ± 0.16,1.16 ± 0.065

Sequence,protein stability index (doa10∆),protein stability index (pdr5∆),protein stability index (san1∆),protein stability index (ubr1∆)
HLVELLLVFRNADLDLD [YDL116W/NUP84],3.17 ± 0.12,2.46 ± 0.098,2.17 ± 0.099,2.5 ± 0.13
HLVSNELEQLSSEALEA [RPL10],1.21 ± 0.053,1.39 ± 0.042,1.3 ± 0.14,1.39 ± 0.031
HMMKRWGYQMVWAPTQK [POP1],2.15 ± 0.054,2.4 ± 0.051,2.59 ± 0.059,2.56 ± 0.054
HNAKNGTLDKNSQTVSG [SNF2],1.98 ± 0.13,2.42 ± 0.2,2.37 ± 0.2,2.96 ± 0.16
HNGREGSIEEPELNVSL [MCD1],3.31 ± 0.3,3.5 ± 0.15,3.07 ± 0.12,3.37 ± 0.071
HPIMETIVNDSNYDWLF [RPN9],2.42 ± 0.058,2.34 ± 0.057,2.16 ± 0.085,2.66 ± 0.052
HPYLFEGAEPGPPYTTD [ISW2],3.04 ± 0.06,3.14 ± 0.066,3.07 ± 0.05,3.18 ± 0.053
HQHIGKASTISRGAVSG [RPL2A],2.55 ± 0.043,2.39 ± 0.059,2.83 ± 0.055,3.12 ± 0.05
HQPITSEQKMKEDADLK [SIR4],2.88 ± 0.058,3.36 ± 0.1,3.42 ± 0.063,3.26 ± 0.073
HQSLGPDGLGEVGMKVQ [RET1],2.7 ± 0.16,–,–,–
HRQEIFKDSPMDLFMST [GAL11],2.85 ± 0.089,2.98 ± 0.059,3.23 ± 0.073,2.87 ± 0.076
HSDRYHRVAENWRKQKG [RPL32],–,2.99 ± 0.2,–,2.6 ± 0.23
HSFIKMLQMKGKLLRNY [SIR2],2.19 ± 0.09,2.4 ± 0.12,2.27 ± 0.16,2.15 ± 0.067
HTSSGSVSFKVFLLLQA [BRR2],1.79 ± 0.042,1.84 ± 0.044,1.5 ± 0.074,1.62 ± 0.056
HVLRGVESPDKNVRFRV [YCG1],–,3.68 ± 0.2,3.16 ± 0.15,–
HVRCGTAFALGIACAGK [RPN2],1.27 ± 0.081,1.58 ± 0.13,1.46 ± 0.23,1.53 ± 0.076
HVRKVKLLKQPKFDVGA [RPS1A],2.21 ± 0.062,2.5 ± 0.085,2.28 ± 0.073,2.2 ± 0.067
HVSHEAMREVNDEKRVK [YIL149C/MLP2],2.74 ± 0.097,2.89 ± 0.15,–,3.03 ± 0.12
HWSVSFQAHEITSFLLS [NAS6],2.28 ± 0.056,1.92 ± 0.051,1.76 ± 0.08,2.02 ± 0.04
HYKQQIAVLIELLEERF [YCS4],2.01 ± 0.07,2.12 ± 0.065,2.48 ± 0.1,2.34 ± 0.072
HYKVPTDTSTTATAATN [MED6],2.28 ± 0.054,2.62 ± 0.053,2.29 ± 0.067,2.61 ± 0.044
IADLASLEQLLGMMYEQ [YCS4],3.18 ± 0.1,2.6 ± 0.067,2.6 ± 0.074,2.65 ± 0.031
IAEIKKTPLLKQYLSAS [RPL6A],2.65 ± 0.063,2.47 ± 0.065,2.31 ± 0.065,2.25 ± 0.047
IAFLVGLVNPKTVQSMT [SWI3],2.46 ± 0.068,2.02 ± 0.059,2.11 ± 0.07,2.56 ± 0.041
IANDNVITPHFITNVQS [SWI1],2.14 ± 0.082,2.68 ± 0.076,2.41 ± 0.092,2.2 ± 0.053
IANFSRAGKYELVKSYS [YJR042W/NUP85],2.25 ± 0.094,2.09 ± 0.074,1.28 ± 0.13,1.45 ± 0.06
